We go through one protein from US20220387457A1.

The Km is the concentration of substrate that gives half-maximal velocity.

Substrate in the data set: CC1(C)Oc2ccc(C#N)cc2[C@@H](N2CCCC2=O)[C@@H]1OP(=O)(O)O
Briefly: purified protein, by the assay type. The class given is biochemical, human. The following applies: other: ALP 0.02 U/100 μL, pH 10, 37.0 °C. The protocol: To activate CKLP1, the phosphate is hydrolyzed from phosphatases to produce leveromakalim, the active moiety that can open (activate) ATP-sensitive potassium channels.
In the first experiment, a fixed concentration of CKLP1 solution was incubated with varying concentrations of placenta-derived human alkaline phosphatase. To accomplish this, placenta-derived human alkaline phosphatase (0.0002 U) in a 100-μL volume was added to each of thirteen 1.5-mL tubes. To each tube, CKLP1 was then added at a fixed concentration [10 mM (0.4%)]. Tubes were inverted twice and incubated in a water bath at 37° C. At each of 13 different time points (0, 1, 2.5, 5, 15, and 30 minutes and at 1, 2, 4, 8, 24, 48, and 72 hours), a single tube was removed, and the reaction was stopped by the addition of 2 volumes (200 μL) of acetonitrile. Samples were stored at −80° C. The experiment was repeated with 10 mM CKLP1 (0.4%) in the presence of placenta-derived human alkaline phosphatase at concentrations of 0.002 U, 0.02 U, and 0.2 U. All assays were performed at pH 10.
In a second experiment, a fixed concentration of placenta-derived human alkaline phosphatase was incubated with varying concentrations of CKLP1. To accomplish this, a fixed concentration of 0.02 U of placenta-derived human alkaline phosphatase in a 100-μL volume was added to each of thirteen 1.5-mL tubes. […]

B1: placenta-derived human alkaline phosphatase (Homo sapiens) (protein)
chain: IIPVEEENPDFWNREAAEALGAAKKLQPAQTAAKNLIIFLGDGMGVSTVTAARILKGQKKDKLGPEIPLAMDRFPYVALSKTYNVDKHVPDSGATATAYLCGVKGNFQTIGLSAAARFNQCNTTRGNEVISVMNRAKKAGKSVGVVTTTRVQHASPAGTYAHTVNRNWYSDADVPASARQEGCQDIATQLISNMDIDVILGGGRKYMFRMGTPDPEYPDDYSQGGTRLDGKNLVQEWLAKRQGARYVWNRTELMQASLDPSVTHLMGLFEPGDMKYEIHRDSTLDPSLMEMTEAALRLLSRNPRGFFLFVEGGRIDHGHHESRAYRALTETIMFDDAIERAGQLTSEEDTLSLVTADHSHVFSFGGYPLRGSSIFGLAPGKARDRKAYTVLLYGNGPGYVLKDGARPDVTESESGSPEYRQQSAVPLDEETHAGEDVAVFARGPQAHLVHGVQEQTFIAHVMAFAACLEPYTACDLAPPAGTTD
notes: varying concentrations of placenta-derived human alkaline phosphatase; from tissue; host or cells: human placenta
Consider B1, for which the Michaelis constant (Km) is 399 µM.
